Results as given in publication PMC9482650, “Quantitative fragmentomics allow affinity mapping of interactomes” (Nature Communications, 2022).

What was measured:
Assay in all cases: holdup assay
Design in all cases: key: below the threshold = too weak to quantify, mostly under pKd 3.1 to 4
Conditions in all cases: plain residues with an end cap or a label only (N-terminal biotin on a linker: ttds)
PDZD4, Q76G19 = biological target: T1, PDZD4, Q76G19
T1 sequence (Q76G19 125-224, limits assumed, looked up): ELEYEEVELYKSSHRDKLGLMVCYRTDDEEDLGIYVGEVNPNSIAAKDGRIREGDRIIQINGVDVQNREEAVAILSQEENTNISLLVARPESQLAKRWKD

APBA3_2, O96018 = biological target: T2, APBA3_2, O96018
T2 sequence (O96018 480-570, limits assumed, looked up): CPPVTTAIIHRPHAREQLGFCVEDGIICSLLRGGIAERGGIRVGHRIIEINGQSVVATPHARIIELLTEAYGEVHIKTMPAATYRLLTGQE

MAGIX, Q9H6Y5 = biological target: MAGIX, Q9H6Y5
SYNJ2BP, P57105 = biological target: T3, SYNJ2BP, P57105
T3 sequence (P57105 8-110, limits assumed, looked up): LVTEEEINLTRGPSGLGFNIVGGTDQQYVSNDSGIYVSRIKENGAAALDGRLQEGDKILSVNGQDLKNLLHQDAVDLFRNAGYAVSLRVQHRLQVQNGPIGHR

SCRIB_4, Q14160 = biological target: SCRIB_4, Q14160
PDZD2_4, O15018 = biological target: T4, PDZD2_4, O15018
T4 sequence (O15018 723-823, limits assumed, looked up): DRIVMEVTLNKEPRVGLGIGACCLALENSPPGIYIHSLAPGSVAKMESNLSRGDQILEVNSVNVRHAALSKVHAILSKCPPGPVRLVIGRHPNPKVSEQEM

SHROOM2, Q13796 = biological target: T5, SHROOM2, Q13796
T5 sequence (Q13796 21-118, limits assumed, looked up): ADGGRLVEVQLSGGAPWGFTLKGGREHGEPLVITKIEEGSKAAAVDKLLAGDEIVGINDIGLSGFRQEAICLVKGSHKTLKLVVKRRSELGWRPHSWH

MPDZ_11, O75970 = biological target: T6, MPDZ_11, O75970
T6 sequence (O75970 1720-1817, limits assumed, looked up): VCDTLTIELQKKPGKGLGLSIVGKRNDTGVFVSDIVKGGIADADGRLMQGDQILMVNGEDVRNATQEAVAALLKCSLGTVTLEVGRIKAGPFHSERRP

TJP1_1, Q07157 = biological target: TJP1_1, Q07157
MPDZ_3, O75970 = biological target: T7, MPDZ_3, O75970
T7 sequence (O75970 372-473, limits assumed, looked up): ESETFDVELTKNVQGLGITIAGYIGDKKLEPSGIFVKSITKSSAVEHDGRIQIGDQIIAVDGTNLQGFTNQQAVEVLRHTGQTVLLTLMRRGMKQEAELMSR

NHERF1_1, O14745 = biological target: T8, NHERF1_1, O14745
T8 sequence (O14745 9-104, limits assumed, looked up): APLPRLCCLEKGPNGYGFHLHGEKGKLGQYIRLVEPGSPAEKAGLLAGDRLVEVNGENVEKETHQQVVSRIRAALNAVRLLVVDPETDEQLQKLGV

SYNPO2L, Q9H987 = biological target: T9, SYNPO2L, Q9H987
T9 sequence (Q9H987 1-98, limits assumed, looked up): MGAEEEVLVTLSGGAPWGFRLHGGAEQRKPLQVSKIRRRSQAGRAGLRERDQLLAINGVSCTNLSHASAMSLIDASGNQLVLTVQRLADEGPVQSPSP

MAGI2_1, Q86UL8 = biological target: T10, MAGI2_1, Q86UL8
T10 sequence (Q86UL8 12-111, limits assumed, looked up): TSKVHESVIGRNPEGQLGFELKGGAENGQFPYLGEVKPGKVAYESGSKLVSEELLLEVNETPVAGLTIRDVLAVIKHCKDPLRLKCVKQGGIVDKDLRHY

TJP3_1, O95049 = biological target: T11, TJP3_1, O95049
T11 sequence (O95049 6-103, limits assumed, looked up): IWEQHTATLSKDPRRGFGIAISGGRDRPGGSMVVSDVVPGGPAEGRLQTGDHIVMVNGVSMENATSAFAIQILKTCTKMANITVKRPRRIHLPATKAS

RGS3, P49796-9 = biological target: RGS3, P49796-9
PDZD9, Q8IXQ8 = biological target: PDZD9, Q8IXQ8
PDZRN3_2, Q9UPQ7 = biological target: T12, PDZRN3_2, Q9UPQ7
T12 sequence (Q9UPQ7 414-513, limits assumed, looked up): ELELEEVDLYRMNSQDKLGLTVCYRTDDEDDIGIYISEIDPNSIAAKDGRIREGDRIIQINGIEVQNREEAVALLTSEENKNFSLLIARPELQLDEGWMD

PDZD2_1, O15018 = biological target: T13, PDZD2_1, O15018
T13 sequence (O15018 80-192, limits assumed, looked up): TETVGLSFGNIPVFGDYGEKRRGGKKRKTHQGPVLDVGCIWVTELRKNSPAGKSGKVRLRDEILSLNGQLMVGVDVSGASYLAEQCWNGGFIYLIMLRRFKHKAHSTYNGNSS

PDZD2_6, O15018 = biological target: T14, PDZD2_6, O15018
T14 sequence (O15018 2745-2839, limits assumed, looked up): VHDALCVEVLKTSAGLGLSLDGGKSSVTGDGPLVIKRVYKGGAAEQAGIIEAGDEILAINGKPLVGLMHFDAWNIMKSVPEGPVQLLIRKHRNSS

PDZD2_5, O15018 = biological target: T15, PDZD2_5, O15018
T15 sequence (O15018 2617-2716, limits assumed, looked up): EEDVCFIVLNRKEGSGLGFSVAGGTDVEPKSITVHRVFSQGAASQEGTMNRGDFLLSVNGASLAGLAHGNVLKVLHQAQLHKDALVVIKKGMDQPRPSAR

NHERF4_3, Q86UT5 = biological target: NHERF4_3, Q86UT5
Sequence of NHERF4_3, Q86UT5 (Q86UT5 325-412): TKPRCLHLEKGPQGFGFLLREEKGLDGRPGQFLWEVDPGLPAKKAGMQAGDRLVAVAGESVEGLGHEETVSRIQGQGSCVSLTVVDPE

Sequence of SCRIB_4, Q14160 (Q14160 1095-1204): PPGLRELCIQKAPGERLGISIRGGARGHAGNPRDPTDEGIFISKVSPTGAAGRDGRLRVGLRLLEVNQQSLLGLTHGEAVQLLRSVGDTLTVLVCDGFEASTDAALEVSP
Sequence of RGS3, P49796-9 (P49796 other isoform, or with tags, fused parts or gaps): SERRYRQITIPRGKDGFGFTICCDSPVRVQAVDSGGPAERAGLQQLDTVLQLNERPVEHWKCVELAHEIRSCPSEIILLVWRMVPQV
Sequence of PDZD9, Q8IXQ8 (Q8IXQ8 23-120): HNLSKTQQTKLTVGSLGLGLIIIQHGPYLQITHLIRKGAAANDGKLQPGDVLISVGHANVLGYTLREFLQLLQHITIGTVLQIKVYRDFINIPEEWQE
Sequence of TJP1_1, Q07157 (Q07157 18-120): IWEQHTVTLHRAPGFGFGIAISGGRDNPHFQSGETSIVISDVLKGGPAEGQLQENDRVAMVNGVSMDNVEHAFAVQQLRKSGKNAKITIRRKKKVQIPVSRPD
Sequence of MAGIX, Q9H6Y5 (Q9H6Y5 118-211): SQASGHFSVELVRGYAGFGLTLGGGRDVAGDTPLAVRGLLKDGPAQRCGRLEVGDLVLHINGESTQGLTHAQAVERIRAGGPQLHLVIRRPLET

HRTCYLVTQL [ASIC3, Q9UHC3]
pKd (PDZD4, Q76G19): below the threshold | pKd (APBA3_2, O96018): below the threshold | pKd (MAGIX, Q9H6Y5): below the threshold | pKd (SYNJ2BP, P57105): 4.72 | pKd (SCRIB_4, Q14160): below the threshold | pKd (PDZD2_4, O15018): below the threshold | pKd (SHROOM2, Q13796): below the threshold | pKd (MPDZ_11, O75970): below the threshold | pKd (TJP1_1, Q07157): 4.17 | pKd (MPDZ_3, O75970): 4.04 | pKd (NHERF1_1, O14745): 5.23 | pKd (SYNPO2L, Q9H987): below the threshold | pKd (MAGI2_1, Q86UL8): 4.01 | pKd (TJP3_1, O95049): below the threshold | pKd (RGS3, P49796-9): 4.32 | pKd (PDZD9, Q8IXQ8): below the threshold | pKd (PDZRN3_2, Q9UPQ7): below the threshold | pKd (PDZD2_1, O15018): below the threshold | pKd (PDZD2_6, O15018): below the threshold | pKd (PDZD2_5, O15018): below the threshold | pKd (NHERF4_3, Q86UT5): 4.13

RTRQRNETQV [HPV51-E6, P26554]
pKd (PDZD4, Q76G19): below the threshold | pKd (APBA3_2, O96018): below the threshold | pKd (MAGIX, Q9H6Y5): below the threshold | pKd (SYNJ2BP, P57105): 5.02 | pKd (SCRIB_4, Q14160): 4.27 | pKd (PDZD2_4, O15018): 4.34 | pKd (SHROOM2, Q13796): below the threshold | pKd (MPDZ_11, O75970): below the threshold | pKd (TJP1_1, Q07157): below the threshold | pKd (MPDZ_3, O75970): below the threshold | pKd (NHERF1_1, O14745): below the threshold | pKd (SYNPO2L, Q9H987): below the threshold | pKd (MAGI2_1, Q86UL8): below the threshold | pKd (TJP3_1, O95049): below the threshold | pKd (RGS3, P49796-9): below the threshold | pKd (PDZD9, Q8IXQ8): below the threshold | pKd (PDZRN3_2, Q9UPQ7): 4.16 | pKd (PDZD2_1, O15018): below the threshold | pKd (PDZD2_6, O15018): below the threshold | pKd (PDZD2_5, O15018): below the threshold | pKd (NHERF4_3, Q86UT5): below the threshold

MERLRVETDV [ARHGEF16, Q5VV41]
pKd (PDZD4, Q76G19): below the threshold | pKd (APBA3_2, O96018): below the threshold | pKd (MAGIX, Q9H6Y5): below the threshold | pKd (SYNJ2BP, P57105): 4.8 | pKd (SCRIB_4, Q14160): below the threshold | pKd (PDZD2_4, O15018): below the threshold | pKd (SHROOM2, Q13796): below the threshold | pKd (MPDZ_11, O75970): below the threshold | pKd (TJP1_1, Q07157): below the threshold | pKd (MPDZ_3, O75970): below the threshold | pKd (NHERF1_1, O14745): below the threshold | pKd (SYNPO2L, Q9H987): below the threshold | pKd (MAGI2_1, Q86UL8): below the threshold | pKd (TJP3_1, O95049): below the threshold | pKd (RGS3, P49796-9): below the threshold | pKd (PDZD9, Q8IXQ8): below the threshold | pKd (PDZRN3_2, Q9UPQ7): below the threshold | pKd (PDZD2_1, O15018): below the threshold | pKd (PDZD2_6, O15018): below the threshold | pKd (PDZD2_5, O15018): below the threshold | pKd (NHERF4_3, Q86UT5): below the threshold
